Results reported in US8703913B2, “Sensor” (Medical Research Council, priority 2008, dated 2014).
Numbering of substitutions follows the chain as printed. Names may count otherwise.

B1: 5-IATR-ParM (WT): wild-type ParM labeled with 5-IATR (conjugate, UniProt P11904 1-320, looked up)
Plasmid segregation protein …: MLVFIDDGSTNIKLQWQESDGTIKQHISPNSFKREWAVSFGDKKVFNYTLNGEQYSFDPISPDAVVTTNIAWQYSDVNVVAVHHALLTSGLPVSEVDIVCTLPLTEYYDRNNQPNTENIERKKANFRKKITLNGGDTFTIKDVKVMPESIPAGYEVLQELDELDSLLIIDLGGTTLDISQVMGKLSGISKIYGDSSLGVSLVTSAVKDALSLARTKGSSYLADDIIIHRKDNNYLKQRINDENKISIVTEAMNEALRKLEQRVLNTLNEFSGYTHVMVIGGGAELICDAVKKHTQIRDERFFKTNNSQYDLVNGMYLIGN
modifications: 5-IATR label
B2: IDCC-ParM (D63C): ParM D63C/C287A labeled with IDCC (conjugate, UniProt P11904 1-320, looked up, variant D63C C287A)
Plasmid segregation protein …: B1 Plasmid segregation protein … with D63C, C287A
modifications: IDCC label
B3: MIANS-ParM (WT): wild-type ParM labeled with MIANS (conjugate, UniProt P11904 1-320, looked up)
Plasmid segregation protein …: B1 Plasmid segregation protein …
modifications: MIANS label
B4: Acrylodan-ParM (WT): wild-type ParM labeled with acrylodan (conjugate, UniProt P11904 1-320, looked up)
Plasmid segregation protein …: B1 Plasmid segregation protein …
modifications: acrylodan label
B5: 5-IATR-ParM (D58C) (conjugate, UniProt P11904 1-320, looked up, variant D58C)
Plasmid segregation protein …: B1 Plasmid segregation protein … with D58C
modifications: 5-IATR rhodamine label
B6: MDCC-ParM (D63C): ParM D63C/C287A labeled with MDCC (conjugate, UniProt P11904 1-320, looked up, variant D63C C287A)
Plasmid segregation protein …: B1 Plasmid segregation protein … with D63C, C287A
modifications: MDCC label
B7: MIANS-ParM (I27C): ParM I27C/C287A labeled with MIANS (conjugate, UniProt P11904 1-320, looked up, variant I27C C287A)
Plasmid segregation protein …: B1 Plasmid segregation protein … with I27C, C287A
modifications: MIANS label
B8: 5-IATR-ParM (I27C) (conjugate, UniProt P11904 1-320, looked up, variant I27C)
Plasmid segregation protein …: B1 Plasmid segregation protein … with I27C
modifications: 5-IATR rhodamine label
B9: MIANS-ParM (S204C): ParM S204C/C287A labeled with MIANS (conjugate, UniProt P11904 1-320, looked up, variant S204C C287A)
Plasmid segregation protein …: B1 Plasmid segregation protein … with S204C, C287A
modifications: MIANS label
B10: IDCC-ParM (I27C): ParM I27C/C287A labeled with IDCC (conjugate, UniProt P11904 1-320, looked up, variant I27C C287A)
Plasmid segregation protein …: B1 Plasmid segregation protein … with I27C, C287A
modifications: IDCC label
B11: Cy3-ParM (I27C): ParM I27C/C287A labeled with Cy3-maleimide (conjugate, UniProt P11904 1-320, looked up, variant I27C C287A)
Plasmid segregation protein …: B1 Plasmid segregation protein … with I27C, C287A
modifications: Cy3-maleimide label
B12: MDCC-ParM (WT): wild-type ParM labeled with MDCC (conjugate, UniProt P11904 1-320, looked up)
Plasmid segregation protein …: B1 Plasmid segregation protein …
modifications: MDCC label
B13: IDCC-ParM (WT): wild-type ParM labeled with IDCC (conjugate, UniProt P11904 1-320, looked up)
Plasmid segregation protein …: B1 Plasmid segregation protein …
modifications: IDCC label
B14: IDCC-ParM (T215C): ParM T215C/C287A labeled with IDCC (conjugate, UniProt P11904 1-320, looked up, variant T215C C287A)
Plasmid segregation protein …: B1 Plasmid segregation protein … with T215C, C287A
modifications: IDCC label
B15: MPrCC-ParM (T215C): ParM T215C/C287A labeled with MPrCC (conjugate, UniProt P11904 1-320, looked up, variant T215C C287A)
Plasmid segregation protein …: B1 Plasmid segregation protein … with T215C, C287A
modifications: MPrCC label
B16: IDCC-ParM (D58C): ParM D58C/C287A labeled with IDCC (conjugate, UniProt P11904 1-320, looked up, variant D58C C287A)
Plasmid segregation protein …: B1 Plasmid segregation protein … with D58C, C287A
modifications: IDCC label
B17: MDCC-ParM (T215C): ParM T215C/C287A labeled with MDCC (conjugate, UniProt P11904 1-320, looked up, variant T215C C287A)
Plasmid segregation protein …: B1 Plasmid segregation protein … with T215C, C287A
modifications: MDCC label
B18: CPM-ParM (I27C): ParM I27C/C287A labeled with CPM (conjugate, UniProt P11904 1-320, looked up, variant I27C C287A)
Plasmid segregation protein …: B1 Plasmid segregation protein … with I27C, C287A
modifications: CPM label
B19: Alexa 488-ParM (I27C): ParM I27C/C287A labeled with AlexaFluor-488-maleimide (conjugate, UniProt P11904 1-320, looked up, variant I27C C287A)
Plasmid segregation protein …: B1 Plasmid segregation protein … with I27C, C287A
modifications: Alexa Fluor 488 label
B20: CPM-ParM (S204C): ParM S204C/C287A labeled with CPM (conjugate, UniProt P11904 1-320, looked up, variant S204C C287A)
Plasmid segregation protein …: B1 Plasmid segregation protein … with S204C, C287A
modifications: CPM label
B21: IDCC-ParM (S204C): ParM S204C/C287A labeled with IDCC (conjugate, UniProt P11904 1-320, looked up, variant S204C C287A)
Plasmid segregation protein …: B1 Plasmid segregation protein … with S204C, C287A
modifications: IDCC label
B22: MPrCC-ParM (I27C): ParM I27C/C287A labeled with MPrCC (conjugate, UniProt P11904 1-320, looked up, variant I27C C287A)
Plasmid segregation protein …: B1 Plasmid segregation protein … with I27C, C287A
modifications: MPrCC label
B23: CPM-ParM (T215C): ParM T215C/C287A labeled with CPM (conjugate, UniProt P11904 1-320, looked up, variant T215C C287A)
Plasmid segregation protein …: B1 Plasmid segregation protein … with T215C, C287A
modifications: CPM label
B24: MDCC-ParM (S204C): ParM S204C/C287A labeled with MDCC (conjugate, UniProt P11904 1-320, looked up, variant S204C C287A)
Plasmid segregation protein …: B1 Plasmid segregation protein … with S204C, C287A
modifications: MDCC label
B25: MDCC-ParM (D58C): ParM D58C/C287A labeled with MDCC (conjugate, UniProt P11904 1-320, looked up, variant D58C C287A)
Plasmid segregation protein …: B1 Plasmid segregation protein … with D58C, C287A
modifications: MDCC label
B26: Cy3b-ParM (I27C): ParM I27C/C287A labeled with Cy3B-maleimide (conjugate, UniProt P11904 1-320, looked up, variant I27C C287A)
Plasmid segregation protein …: B1 Plasmid segregation protein … with I27C, C287A
modifications: Cy3B label
B27: 5-IATR-ParM (D63C) (conjugate, UniProt P11904 1-320, looked up, variant D63C)
Plasmid segregation protein …: B1 Plasmid segregation protein … with D63C
modifications: 5-IATR rhodamine label
B28: 6-IATR-ParM (WT): wild-type ParM labeled with 6-IATR (conjugate, UniProt P11904 1-320, looked up)
Plasmid segregation protein …: B1 Plasmid segregation protein …
modifications: 6-IATR label

Experiment: Screening mutant/fluorophore combinations for a fluorescence response to ADP
Details: ParM mutant/fluorophore combination

Molecule | Fluorescence change, ratio of the intensity in presence of 1 mM ADP to that in the absence of ADP
B1 | 0.74
B2 | 0.53
B3 | 0.50
B4 | 0.59
B5 | 0.83
B6 | 0.48
B7 | 0.72
B8 | 1.3
B9 | 0.91
B10 | 1.5
B11 | 1.2
B12 | 0.27
B13 | 0.34
B14 | 0.74
B15 | 0.78
B16 | 0.93
B17 | 0.74
B18 | 0.62
B19 | 0.78
B20 | 0.62
B21 | 0.80
B22 | 1.1
B23 | 0.76
B24 | 0.68
B25 | 0.82
B26 | 0.83
B27 | 0.80
B28 | 0.70
